Laboratory results taken from FireProtDB (doi:10.1021/bi00358a035).
“And” between values parts separate entries of the source, which are not always exact repeats. Equal entries are not always repeated.

B1: Tryptophan synthase alpha chain, P0A877 (parent)
chain: MERYESLFAQLKERKEGAFVPFVTLGDPGIEQSLKIIDTLIEAGADALELGIPFSDPLADGPTIQNATLRAFAAGVTPAQCFEMLALIRQKHPTIPIGLLMYANLVFNKGIDEFYAQCEKVGVDSVLVADVPVEESAPFRQAALRHNVAPIFICPPNADDDLLRQIASYGRGYTYLLSRAGVTGAENRAALPLNHLVAKLKEYNAAPPLQGFGISAPDQVKAAIDAGAAGAISGSAIVKIIEQHINEPEKMLAALKVFVQPMKAATRS

Variants of: B1
Conditions: Escherichia coli (strain K12); pH 7.8; 25 °C; Urea; CD; Potassium phosphate 10 mM; transition: 3; reversible: yes (>90%); structure 1WQ5; whole UniProt chain shown

Variant	denaturant m value	denaturant midpoint (higher = more stable)	unfolding free energy	ddG of mutation (higher = less stable)
MERYESLFAQLKERKEGAFVPLVTLGDPGIEQSLKIIDTLIEAGADALELGIPFSDPLADGPTIQNATLRAFAAGVTPAQCFEMLALIRQKHPTIPIGLLMYANLVFNKGIDEFYAQCEKVGVDSVLVADVPVEESAPFRQAALRHNVAPIFICPPNADDDLLRQIASYGRGYTYLLSRAGVTGAENRAALPLNHLVAKLKEYNAAPPLQGFGISAPDQVKAAIDAGAAGAISGSAIVKIIEQHINEPEKMLAALKVFVQPMKAATRS [F22L]	3.1 kcal/mol/M and 1.2 kcal/mol/M	2.54 M and 3.62 M	7.9 kcal/mol and 4.2 kcal/mol	–
MERYESLFAQLKERKEGAFVPFVTLGDPGIEQSLKIIDTLIEAGADALMLGIPFSDPLADGPTIQNATLRAFAAGVTPAQCFEMLALIRQKHPTIPIGLLMYANLVFNKGIDEFYAQCEKVGVDSVLVADVPVEESAPFRQAALRHNVAPIFICPPNADDDLLRQIASYGRGYTYLLSRAGVTGAENRAALPLNHLVAKLKEYNAAPPLQGFGISAPDQVKAAIDAGAAGAISGSAIVKIIEQHINEPEKMLAALKVFVQPMKAATRS [E49M]	2.8 kcal/mol/M and 1.4 kcal/mol/M	3.33 M and 4.92 M	9.4 kcal/mol and 7 kcal/mol	-3.7 kcal/mol and -2 kcal/mol
MERYESLFAQLKERKEGAFVPFVTLGDPGIEQSLKIIDTLIEAGADALELGIPFSDPLADGPTIQNATLRAFAAGVTPAQCFEMLALIRQKHPTIPIGLLMYANLVFNKGIDEFYAQCEKVGVDSVLVADVPVEESAPFRQAALRHNVAPIFICPPNADDDLLRQIASYGRGYTYLLSRAGVTGAENRAALPLNHLVAKLKEYNAAPPLQEFGISAPDQVKAAIDAGAAGAISGSAIVKIIEQHINEPEKMLAALKVFVQPMKAATRS [G211E]	3 kcal/mol/M and 1.5 kcal/mol/M	2.73 M and 3.72 M	8.1 kcal/mol and 5.4 kcal/mol	–
MERYESLFAQLKERKEGAFVPFVTLGDPGIEQSLKIIDTLIEAGADALELGIPFSDPLADGPTIQNATLRAFAAGVTPAQCFEMLALIRQKHPTIPIGLLMYANLVFNKGIDEFYAQCEKVGVDSVLVADVPVEESAPFRQAALRHNVAPIFICPPNADDDLLRQIASYGRGYTYLLSRAGVTGAENRAALPLNHLVAKLKEYNAAPPLQGFGISAPDQVKAAIDAGAAGAISDSAIVKIIEQHINEPEKMLAALKVFVQPMKAATRS [G234D]	2.6 kcal/mol/M and 1.8 kcal/mol/M	2.78 M and 3.99 M	7.1 kcal/mol and 7 kcal/mol	-1.4 kcal/mol and -2 kcal/mol
MERYESLFAQLKERKEGAFVPFVTLGDPGIEQSLKIIDTLIEAGADALELGIPFSDPLADGPTIQNATLRAFAAGVTPAQCFEMLALIRQKHPTIPIGLLMYANLVFNKGIDEFYAQCEKVGVDSVLVADVPVEESAPFRQAALRHNVAPIFICPPNADDDLLRQIASYGRGYTYLLSRAGVTGAENRAALPLNHLVAKLKEYNAAPPLQGFGISAPDQVKAAIDAGAAGAISKSAIVKIIEQHINEPEKMLAALKVFVQPMKAATRS [G234K]	2.3 kcal/mol/M and 1.2 kcal/mol/M	2.65 M and 3.81 M	6.2 kcal/mol and 4.7 kcal/mol	–
